± gives the half width of the 95% confidence interval.
Legend:
[1] = folding stability dG unfold (combined trypsin and chymotrypsin); higher = more stable
Procedure, shortened: (§1)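 Unfolding free energy was derived, per protease or combined, against a sequence-predicted unfolded-state K50 and a shared folded-state K50, starting from K50 inferred by Bayesian fitting of sequencing counts. Digestion with trypsin and chymotrypsin was carried out on designed mini-proteins under 80 residues without cysteine in a PA-tagged cDNA display construct. Only designs with AlphaFold2 dimer inter-PAE above 15 were kept.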

[2] = folding stability dG unfold from trypsin proteolysis; higher = more stable
Procedure, shortened: as §1

[3] = folding stability dG unfold from chymotrypsin proteolysis; higher = more stable
Procedure, shortened: as §1

Row | Sequence | folding stability dG unfold [1] | folding stability dG unfold [2] | folding stability dG unfold [3]
1 | SAGGSAGGSAGMRIVLRLPRDVPLEALRRELEALGGEVRIETEDDPDGRLLFVVELRPKESAGGSAGGSAGG [r11_1050_TrMRF] | 1.8 ± 0.14 kcal/mol | 1.63 ± 0.061 kcal/mol | 1.81 ± 0.14 kcal/mol
2 | SAGGSAGGSAGMRKVVTGKEAVVKLTGIPPEVLEAMSEEELRALVAPLVEAGKVDEIELKSAGGSAGGSAGG [r11_80_JUSTAS] | 0.601 ± 0.13 kcal/mol | -0.0624 ± 0.17 kcal/mol | 0.898 ± 0.052 kcal/mol
3 | SAGGSAGGSAGMRPVTSVYYDPNTGRLYARFPDGVVANYELTPDGSVRLVSVAPAHPDLDSAGGSAGGSAGG [r17_61_TrMRF] | 1.42 ± 0.066 kcal/mol | 0.992 ± 0.04 kcal/mol | 1.64 ± 0.059 kcal/mol
4 | SAGGSAGGSAGMRTVEVKVVFKEGDKEFEKTITITLSPDDPSLEERAKEIAEKGIVVEIIRSAGGSAGGSAG [r3_30_JUSTAS] | 1.75 ± 0.15 kcal/mol | 1.62 ± 0.055 kcal/mol | 1.99 ± 0.12 kcal/mol
5 | SAGGSAGGSAGMRVVEVYRLPDGSYRIRFPDGTEVEVSPEELEEVARRLGADEVRVRPELSAGGSAGGSAGG [r11_312_JUSTAS] | 3.78 ± 0.051 kcal/mol | 2.4 ± 0.056 kcal/mol | 4.201 ± 0.041 kcal/mol
6 | SAGGSAGGSAGMSALVLKVKIYYPKELFSPEEIEKIKSARIEVEPFLVEVKIDPETGELGSAGGSAGGSAGG [r17_310_TrMRF] | 2.38 ± 0.061 kcal/mol | 1.84 ± 0.03 kcal/mol | 2.744 ± 0.021 kcal/mol
7 | SAGGSAGGSAGMTKIVIQYEVPPDKPPPDLEEIKKSLPGAENIEITREELPNGTWVYTVESAGGSAGGSAGG [r17_205_JUSTAS] | 0.593 ± 0.26 kcal/mol | 0.694 ± 0.19 kcal/mol | 0.405 ± 0.3 kcal/mol
8 | SAGGSAGGSAGMTKTITVGDKKVNVTITPLPTPTTKVTITFPDGSTKTVTLPAGTPITLGSAGGSAGGSAGG [r11_525_JUSTAS] | 0.326 ± 0.054 kcal/mol | 0.566 ± 0.045 kcal/mol | 0.176 ± 0.064 kcal/mol
9 | SAGGSAGGSAGMTLEELAAADPDAVVPVKVPGTDTDVDVTVEPGAVRFTFPDGTTATVPASAGGSAGGSAGG [r17_128_JUSTAS] | -0.046 ± 0.17 kcal/mol | -0.307 ± 0.11 kcal/mol | 0.112 ± 0.19 kcal/mol
10 | SAGGSAGGSAGMTPEEEVEYEIEVPDPNSDNLKTKIKLKFPVGTPEEEIKKKAEELAKKLSAGGSAGGSAGG [r11_516_JUSTAS] | 1.73 ± 0.19 kcal/mol | 1.67 ± 0.11 kcal/mol | 1.67 ± 0.093 kcal/mol
11 | SAGGSAGGSAGMTPGPAPRPKVTVEPSLSEVPEDDSIVTTTTVTFPDTGETTSSTTTSSASAGGSAGGSAGG [r17_31_JUSTAS] | 1 ± 0.084 kcal/mol | 0.337 ± 0.064 kcal/mol | 1.24 ± 0.051 kcal/mol
12 | SAGGSAGGSAGMTPVEITDPNSDKTYTYDPEKKTLTKYYPGEGKTETFPLTSEEEAKKLLSAGGSAGGSAGG [r11_936_JUSTAS] | 0.127 ± 0.08 kcal/mol | -0.536 ± 0.13 kcal/mol | 0.396 ± 0.069 kcal/mol
13 | SAGGSAGGSAGMTTLTVTVPAPPDALTPEDVVALLRPEYPDATITVTREGDTLVVTVTVASAGGSAGGSAGG [r11_7_JUSTAS] | 2.83 ± 0.047 kcal/mol | 3.31 ± 0.058 kcal/mol | 2.39 ± 0.033 kcal/mol
14 | SAGGSAGGSAGMTVEVVKSVVPTKTNETVIVTTVTEVEPPTGKVTTLETKTVSTANPELLSAGGSAGGSAGG [r11_777_JUSTAS] | -0.369 ± 0.23 kcal/mol | -0.755 ± 0.12 kcal/mol | -0.395 ± 0.11 kcal/mol
15 | SAGGSAGGSAGMTYVYPGPDGKEYLAEVDPNIPGAEVTVTPPDTGETVTVPLSQVTEVPPSAGGSAGGSAGG [r11_822_JUSTAS] | 0.222 ± 0.063 kcal/mol | 0.56 ± 0.05 kcal/mol | -0.449 ± 0.18 kcal/mol
16 | SAGGSAGGSAGMVFLDPETRLLLVVHPNGEPELVLLEDGRAVLFHPSTGERREIPLAEIGSAGGSAGGSAGG [r11_297_TrMRF] | 0.263 ± 0.12 kcal/mol | -0.195 ± 0.13 kcal/mol | 0.318 ± 0.12 kcal/mol
17 | SAGGSAGGSAGMVIVDPERGYIYIPFPEDIEPEEFIEANKIPEFDIEVLEIGENIPVIKLSAGGSAGGSAGG [r17_323_TrMRF] | 0.209 ± 0.096 kcal/mol | 0.357 ± 0.047 kcal/mol | -0.0485 ± 0.12 kcal/mol
18 | SAGGSAGGSAGMVLLKSEEEAEELRKPNVSLSVTPVPPVEVSEGDPNALAYEVELKPPLESAGGSAGGSAGG [r11_168_JUSTAS] | 0.86 ± 0.11 kcal/mol | 1.49 ± 0.053 kcal/mol | 0.0585 ± 0.17 kcal/mol
19 | SAGGSAGGSAGMVTIYADPDGSYTAHFPDGSSASYSSLEEVKANLKAKYPDVKDVVIEKTSAGGSAGGSAGG [r11_806_JUSTAS] | 3.11 ± 0.084 kcal/mol | 2.17 ± 0.088 kcal/mol | 3.449 ± 0.034 kcal/mol
20 | SAGGSAGGSAGMVTVGDTEVVIEKDPNSDKYTVTVTPADGTTETLTFDSEEEVERYIEAKSAGGSAGGSAGG [r11_238_JUSTAS] | 1.61 ± 0.052 kcal/mol | 1.49 ± 0.051 kcal/mol | 1.7 ± 0.035 kcal/mol
21 | SAGGSAGGSAGMVVVERTSAPDPDKPTSYWFYTKTTFFPDGSVLSETKKFPSPAELEKATSAGGSAGGSAGG [r11_792_JUSTAS] | 0.992 ± 0.07 kcal/mol | 0.793 ± 0.023 kcal/mol | 1.07 ± 0.12 kcal/mol

Row | Sequence | folding stability dG unfold [1] | folding stability dG unfold [2] | folding stability dG unfold [3]
22 | SAGGSAGGSAGMVYITKGKDGIWYEAEVDPTKPGAKVKVRHPLTGKEEEITPAEVVAVPPSAGGSAGGSAGG [r11_822_TrMRF] | 0.155 ± 0.42 kcal/mol | 0.141 ± 0.15 kcal/mol | -0.546 ± 0.6 kcal/mol
23 | SAGGSAGGSAGMWIDEDTIRRLAALLGYPGKVEVVRLEDGSLLVVVYGDTEPGVLLFPLDSAGGSAGGSAGG [r11_410_TrMRF] | 2.59 ± 0.048 kcal/mol | 3.02 ± 0.079 kcal/mol | 2.255 ± 0.017 kcal/mol
24 | SAGGSAGGSAGMYVITIKLPSGEVIKIKTDPKNPEEAIKKLEPQYPPAEFEVKEVPENEISAGGSAGGSAGG [r11_103_JUSTAS] | 0.254 ± 0.18 kcal/mol | 0.633 ± 0.041 kcal/mol | -0.198 ± 0.26 kcal/mol
25 | SAGGSAGGSAGMYYVIKRPGKVEILPEEEVPKVIEEDPNVEVKKFDSEEEAKKALEELLKSAGGSAGGSAGG [r11_60_JUSTAS] | 0.704 ± 0.058 kcal/mol | 0.539 ± 0.039 kcal/mol | 0.793 ± 0.073 kcal/mol
26 | SAGGSAGGSAGNIILPFEIESIDIEEETAIDPETGEPVKVKKILIRLKGTGKIIEISFTEKSAGGSAGGSAG [r3_424_TrMRF] | 2.88 ± 0.26 kcal/mol | 2.76 ± 0.23 kcal/mol | 3.01 ± 0.11 kcal/mol
27 | SAGGSAGGSAGNLKPVSGGGVLKVEVKDPNTDKKETYLVPPNKPDVVLELAKDGYEVEVSSAGGSAGGSAGG [r11_1006_TrMRF] | 0.639 ± 0.14 kcal/mol | 0.938 ± 0.11 kcal/mol | 0.227 ± 0.14 kcal/mol
28 | SAGGSAGGSAGNLKVVDISIWRTDDMRYIMFKLEGDGLTIMIWVPPKEPGKIQIMIFPLDSAGGSAGGSAGG [r11_1046_TrROS] | 4.34 ± 0.16 kcal/mol | 3.49 ± 0.23 kcal/mol | 4.51 ± 0.1 kcal/mol
29 | SAGGSAGGSAGNMWDQALRAAREAKDQGDEEVVIHFPPNMKNWVKEWAEDLGWPIKIQPTSAGGSAGGSAGG [r11_371_TrROS] | -0.0966 ± 0.19 kcal/mol | 0.128 ± 0.17 kcal/mol | 0.027 ± 0.25 kcal/mol
30 | SAGGSAGGSAGNPNTPVIVKITLPGGKEITLEGTVSEAEEIVKKLEEEGHPFVEVEVYNRSAGGSAGGSAGG [r11_946_JUSTAS] | 0.0762 ± 0.14 kcal/mol | 0.422 ± 0.041 kcal/mol | -0.849 ± 0.3 kcal/mol
31 | SAGGSAGGSAGNWKIKNIEPVRLPNNVHIMKFQIPGRSLIFVFDPKNGQKRWIPLKDIKPSAGGSAGGSAGG [r17_286_TrROS] | -0.0705 ± 0.09 kcal/mol | -0.301 ± 0.25 kcal/mol | -0.0752 ± 0.14 kcal/mol
32 | SAGGSAGGSAGPEITVVKAPDEGYYYLIKLKVTYTLRDPETTAPLAEFEVEYYFLDRGSASAGGSAGGSAGG [r17_124_TrMRF] | 4.58 ± 0.47 kcal/mol | 3.3 ± 0.28 kcal/mol | 4.91 ± 0.12 kcal/mol
33 | SAGGSAGGSAGPENKNYMVMEMTIDIWIPLPPNAKVVFDPDEGKWKYVPIKIPIRIVMPWSAGGSAGGSAGG [r11_257_TrROS] | 3.2 ± 0.15 kcal/mol | 2.91 ± 0.14 kcal/mol | 3.43 ± 0.12 kcal/mol
34 | SAGGSAGGSAGPEVIEIKNPKTGKTYRIVRNKDGKLLIYNEATGKVAVFKDGKIELVPAPSAGGSAGGSAGG [r17_476_TrROS_Hall] | 1.05 ± 0.16 kcal/mol | 1.14 ± 0.07 kcal/mol | 0.825 ± 0.21 kcal/mol
35 | SAGGSAGGSAGPEVRIELERDEDGRLRLRATFKLEDGKEVRVEVEFDLKTKKLTVKIEPVSAGGSAGGSAGG [r11_107_TrROS_Hall] | 4.63 ± 0.39 kcal/mol | 3.83 ± 0.19 kcal/mol | 4.8 ± 0.41 kcal/mol
36 | SAGGSAGGSAGPEWYVVMRVENPGTGKEVHFIGPWDDFKEKLPPSNVKMEWHLIPADALKSAGGSAGGSAGG [r11_334_TrROS] | 0.494 ± 0.061 kcal/mol | 0.0887 ± 0.066 kcal/mol | 0.666 ± 0.06 kcal/mol
37 | SAGGSAGGSAGPFKIEMTFIFKKDNEYYIAKIEIEISPDGYPKMKIEIKKVDINELENYFSAGGSAGGSAGG [r11_690_TrMRF] | 4.04 ± 0.4 kcal/mol | 2.52 ± 0.15 kcal/mol | 4.39 ± 0.14 kcal/mol
38 | SAGGSAGGSAGPFTIMVIERVPPDDPEYDKLHKDNGMPPENMIRIKIFRFKSPEQLKELFSAGGSAGGSAGG [r11_83_TrROS] | 2.08 ± 0.086 kcal/mol | 1.82 ± 0.038 kcal/mol | 2.12 ± 0.06 kcal/mol
39 | SAGGSAGGSAGPGLSITTTITTTTPAKLPNGTAPLRTTTTTIITELKPADPNNPVILANTSAGGSAGGSAGG [r11_236_JUSTAS] | 0.746 ± 0.048 kcal/mol | 1.05 ± 0.053 kcal/mol | 0.278 ± 0.069 kcal/mol
40 | SAGGSAGGSAGPKIKIKKFPDFLIAEIEFPDGKKATAIFDPKTGKIIVFVGDKPIEIDIGSAGGSAGGSAGG [r11_846_TrMRF] | 3.1 ± 0.07 kcal/mol | 2.16 ± 0.059 kcal/mol | 3.49 ± 0.09 kcal/mol
41 | SAGGSAGGSAGPKPLATITLPYPDNASVTITVTPNGVLIDPDPNITNPEVEKAVADALTDSAGGSAGGSAGG [r11_372_TrMRF] | 1.41 ± 0.099 kcal/mol | 1.55 ± 0.11 kcal/mol | 1.07 ± 0.12 kcal/mol
42 | SAGGSAGGSAGPLKIKKLELRKLPDGFVEMTAEFEGPENYTVRLIVRKDDPNKLVLEVFPSAGGSAGGSAGG [r11_618_TrROS_Hall] | 2.69 ± 0.16 kcal/mol | 2.07 ± 0.095 kcal/mol | 2.98 ± 0.057 kcal/mol

— the supplement of paper PMC12764529
